This data set concerns the molecule itself. The data set can be described thus: crystal structure; H101N crystals by vapour diffusion (7-8% PEG 20,000, 50 mM MES pH 6.3), 1 mM MnCl2 added, quick soak in 33% (w/v) L-rhamnose or D-allose; data at 100 K; four molecules (Mol-A to Mol-D) forming the tetramer.

The results in this text go back to article PMC3668531 (FEBS Open Bio, 2012).

B1: mutant P. stutzeri L-RhI with a substitution of His101 with Asn (H101N) (enzyme, Pseudomonas stutzeri)
chain: MAEFRIAQDVVARENDRRASALKEDYEALGANLARRGVDIEAVTAKVEKFFVAVPSWGVGTGGTRFARFPGTGEPRGIFDKLDDCAVIQQLTRATPNVSLNIPWDKADPKELKARGDALGLGFDAMNSNTFSDAPGQAHSYKYGSLSHTDAATRAQAVEHNLECIEIGKAIGSKALTVWIGDGSNFPGQSNFTRAFERYLSAMAEIYKGLPDDWKLFSEHKMYEPAFYSTVVQDWGTNYLIAQTLGPKAQCLVDLGHHAPNTNIEMIVARLIQFGKLGGFHFNDSKYGDDDLDAGAIEPYRLFLVFNELVDAEARGVKGFHPAHMIDQSHNVTDPIESLINSANEIRRAYAQALLVDRAALSGYQEDNDALMATETLKRAYRTDVEPILAEARRRTGGAVDPVATYRASGYRARVAAERPASVAGGGGII
For orientation: stoichiometry N means the number of molecules, sites or subunits per partner or assembly. With B1, the “stoichiometry N” value was determined as 4.
